The text below walks through data of patent US20240076680 (RHEINISCHE FRIEDRICH-WILHELMS-UNIVERSITÄt BONN, published 2024).

In data set [1] the target is SARS-CoV-2 spike receptor-binding domain (RBD) (SARS-CoV-2, UniProt P0DTC2 P0DTC2:319-591). Nature of the data set: flow.
Another data set deals with ACE2 ectodomain (ACE2e) (Homo sapiens, UniProt Q9BYF1 Q9BYF1:19-615). Kind of data set: flow. The settings on record: tags: N-terminal myc, C-terminal HRV 3C site and 8xHis; FreeStyle 293F expressed.
ACE2 ectodomain (ACE2e), sequence (Q9BYF1 19-615, one chain of several): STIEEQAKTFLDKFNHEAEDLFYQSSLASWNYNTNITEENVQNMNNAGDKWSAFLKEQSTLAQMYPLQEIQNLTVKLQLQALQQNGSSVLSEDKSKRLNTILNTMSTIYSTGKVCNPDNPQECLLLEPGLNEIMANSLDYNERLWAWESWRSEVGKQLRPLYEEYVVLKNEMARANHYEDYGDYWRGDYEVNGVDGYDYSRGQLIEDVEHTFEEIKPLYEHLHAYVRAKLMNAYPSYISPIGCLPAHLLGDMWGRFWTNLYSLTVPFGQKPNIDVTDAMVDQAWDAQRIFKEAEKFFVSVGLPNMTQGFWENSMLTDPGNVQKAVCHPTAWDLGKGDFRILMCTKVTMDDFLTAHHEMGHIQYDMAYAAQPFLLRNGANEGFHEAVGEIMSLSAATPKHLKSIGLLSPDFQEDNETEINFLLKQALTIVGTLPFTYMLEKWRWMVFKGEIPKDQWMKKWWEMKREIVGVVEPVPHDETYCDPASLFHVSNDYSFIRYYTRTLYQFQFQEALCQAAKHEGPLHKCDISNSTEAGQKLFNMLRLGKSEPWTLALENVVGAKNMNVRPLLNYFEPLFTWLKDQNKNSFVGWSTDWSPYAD

B1: SP7 (ssDNA)
DNA: GGGAGAGGAGGGAGATAGATATCAAAGGAGGGTAGGTAGTGCTTGGTAGGGAAACTCCGCCGATTTTTCGTGGATGCCACAGGAC
For B1, the binding result (in data set [1]; with ACE2 ectodomain (ACE2e)) was “no binding” in each case.

B2: SP5 (ssDNA)
DNA: GGGAGAGGAGGGAGATAGATATCAACCATGGTAGGTATTGCTTGGTAGGGATAGTGGGCTTGATGTTTCGTGGATGCCACAGGAC
In the case of B2, the binding result (in data set [1]; with ACE2 ectodomain (ACE2e)) was “no binding” in each case.

B3: SP8 (ssDNA)
DNA: GGGAGAGGAGGGAGATAGATATCAAAAGGAGGGTAGGTAGTGCTTGGTAGGGAAACTCCGCCGATTTTTCGTGGATGCCACAGGAC
Turning to B3, the binding result (in data set [1]; with ACE2 ectodomain (ACE2e)) was “no binding” in each case.

B4: SP6 (ssDNA)
DNA: GGGAGAGGAGGGAGATAGATATCAACCCATGGTAGGTATTGCTTGGTAGGGATAGTGGGCTTGATGTTTCGTGGATGCCACAGGAC
For the molecule B4, the binding result (in data set [1]; in the data set with ACE2 ectodomain (ACE2e)) was “no binding” throughout.
